Measured values taken from paper PMC9789152.
Where “and” joins values, the source holds several entries; their conditions need not be identical. Equal values may be shown once.

Legend:
[1] = molecular target: S. mutans surface protein antigen I/II (Ag I/II), proline repeat working fragment (Streptococcus mutans UA159); assay: cryo-TEM of self-assembly; protein stock (10 mg/mL, pH 3.5) diluted 10 times with 4 mM PBS (pH 7.4 in the methods, pH 8.0 in the results); 10 min assembly reaction, plunge-frozen
[2] = molecular target: recombinant human amelogenin (AmH) (human); assay: as above

stoichiometry N [2] | Substance | stoichiometry N [1]
 | S. mutans surface protein antigen I/II (Ag I/II), proline repeat working fragment (domain or fragment) | 6 monomers and 10 monomers
6 monomers and 8 monomers | recombinant human amelogenin (AmH) (natural protein) | 
